The record followed here is PMC3351836 (Science (New York, N.y.), 2011).

The target in the experiment is YU2-gp120 (HIV-1 group M subtype B, isolate YU-2, UniProt P35961). Briefly: ELISA. For orientation: ELISA stands for enzyme-linked immunosorbent assay.

B1: NIH45-46 (antibody, V domains shown)
VH: QVRLSQSGGQMKKPGESMRLSCRASGYEFLNCPINWIRLAPGRRPEWMGWLKPRGGAVNYARKFQGRVTMTRDVYSDTAFLELRSLTSDDTAVYFCTRGKYCTARDYYNWDFEHWGRGAPVTVSS
VL: EIVLTQSPATLSLSPGETAIISCRTSQSGSLAWYQQRPGQAPRLVIYSGSTRAAGIPDRFSGSRWGADYNLSISNLESGDFGVYYCQQYEFFGQGTKVQVD
As for B1, the binding result is “binds”.

B2: 3BNC60 (antibody, V domains shown)
VH: QVHLSQSGAAVTKPGASVRVSCEASGYKISDHFIHWWRQAPGQGLQWVGWINPKTGQPNNPRQFQGRVSLTRQASWDFDTYSFYMDLKAVRSDDTAIYFCARQRSDFWDFDVWGSGTQVTVSS
VL: DIQMTQSPSSLSARVGDTVTITCQANGYLNWYQQRRGKAPKLLIYDGSKLERGVPARFSGRRWGQEYNLTINNLQPEDVATYFCQVYEFIVPGTRLDLK
As to B2, the binding result is listed as “binds”.
